From patent US20230002488A1 (SYSTIMMUNE, published 2023)

Assays:
[1] = molecular target: T1, human EGFR (human, UniProt P00533 25-645); test: BLI (Octet), GNC on AHC sensor, His-tagged human EGFR as analyte, global 1:1 fit
T1 construct: also called huEGFR; His-tagged human EGFR

[2] = molecular target: T2, human PD-L1 (human, UniProt Q9NZQ7 19-238); test: BLI (Octet), GNC on AHC sensor, 100 nM antigen as analyte, 1:1 fit
T2 construct: Bought antigen; construct not described

[3] = molecular target: human ROR1 (human, UniProt Q01973 30-403, limits assumed); test: as above
[4] = molecular target: T3, human 4-1BB (human, UniProt Q07011 24-186); test: as above
T3 construct: Bought antigen; construct not described

[5] = molecular target: T4, human CD19 (human, UniProt P15391 20-291); test: as above
T4 sequence (looked up): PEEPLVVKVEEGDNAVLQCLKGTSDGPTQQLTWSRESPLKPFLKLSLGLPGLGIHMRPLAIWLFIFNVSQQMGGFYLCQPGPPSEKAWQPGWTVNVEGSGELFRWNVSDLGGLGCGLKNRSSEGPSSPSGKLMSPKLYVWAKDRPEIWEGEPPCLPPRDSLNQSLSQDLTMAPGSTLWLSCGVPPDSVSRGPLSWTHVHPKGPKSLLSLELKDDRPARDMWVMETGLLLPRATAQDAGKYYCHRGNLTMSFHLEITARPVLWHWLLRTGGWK

[6] = molecular target: EGFRvIII (human, UniProt P00533 25-645, limits assumed); test: as above
[7] = molecular target: T5, SI-49P7; test: BLI (Octet), biotinylated MICA on SA tips, GNC protein 0-100 nM as analyte
T5 construct: Antibody-like penta-GNC protein; NKG2D at D2, 4-1BBL trimer at D4; D1 CD3, D3 PD-L1, D6 CD19; also called αCD3×NKG2D×αPD-L1×41BBL trimer×αCD19

[8] = molecular target: HER3 on BxPC3 cells (human, UniProt P21860 20-1342); test: cell-based or functional assay
[9] = molecular target: T4, human CD19; test: BLI (Octet), GNC on AHC sensor; strong binding, dissociation too slow to quantify KD

B1: SI-55P3 (antibody, human IgG1, kappa)
heavy: not shown
light: ENVLTQSPASLSASPGERVTITCSASSSVSYMHWYQQKPGQAPKLWIYDTSKLASGVPSRFSGSGSGNDHTLTISSMEPEDFATYYCFQGSVYPFTFGQGTKVTVLGGGGSGGGGSGGGGSGGGGSQVTLKESGPGLVQPGQTLRLTCAFSGFSLSTSGMGVGWIRQPPGKGLEWLAHIWWDDDKRYNPALKSRLTISKDTSKNQVYLQMNSLDAEDTAVYYCARMELWSYYFDYWGQGTLVTVSSGGGGSGGGGSDPVLTQSPSSLSASVGDRVTISCQSSQSVAKNNNLAWFQQKPGQAPKLLIYSASTLAAGVPSRFSGSGSGTDFTLTISSVQPEDFATYYCSARDSGNIQSFGGGTKVEIKRTVAAPSVFIFPPSDEQLKSGTASVVCLLNNFYPREAKVQWKVDNALQSGNSQESVTEQDSKDSTYSLSSTLTLSKADYEKHKVYACEVTHQGLSSPVTKSFNRGEC
notes: Penta-specific: D1 humanized anti-EGFR H1 scFv, D2 CD3, D3 PD-L1, D4 4-1BB, D6 CD19
Question: Which Kd [1] does the source give for B1 here?
Answer: Its Kd is 18.1 nM.

B2: SI-79P2 (antibody, human IgG1, kappa)
heavy: not shown
light: ENVLTQSPASLSASPGERVTITCSASSSVSYMHWYQQKPGQAPKLWIYDTSKLASGVPSRFSGSGSGNDHTLTISSMEPEDFATYYCFQGSVYPFTFGQGTKVTVLGGGGSGGGGSGGGGSGGGGSQVTLKESGPGLVQPGQTLRLTCAFSGFSLSTSGMGVGWIRQPPGKGLEWLAHIWWDDDKRYNPALKSRLTISKDTSKNQVYLQMNSLDAEDTAVYYCARMELWSYYFDYWGQGTLVTVSSGGGGSGGGGSDPVLTQSPSSLSASVGDRVTISCQSSQSVAKNNNLAWFQQKPGQAPKLLIYSASTLAAGVPSRFSGSGSGTDFTLTISSVQPEDFATYYCSARDSGNIQSFGGGTKVEIKRTVAAPSVFIFPPSDEQLKSGTASVVCLLNNFYPREAKVQWKVDNALQSGNSQESVTEQDSKDSTYSLSSTLTLSKADYEKHKVYACEVTHQGLSSPVTKSFNRGEC
notes: Penta-specific: D1 humanized anti-EGFR H4 scFv, D2 CD3, D3 PD-L1, D4 4-1BB, D6 CD19
Question: For B2, which Kd [1] is on record?
Answer: Its Kd is 4.3 nM.

B3: SI-35E20 (antibody)
chain 1: not shown
chain 2: AYDMTQSPSSVSASVGDRVTIKCQASEDIYSFLAWYQQKPGKAPKLLIHSASSLASGVPSRFSGSGSGTDFTLTISSLQPEDFATYYCQQGYGKNNVDNAFGGGTKVEIKRTVAAPSVFIFPPSDEQLKSGTASVVCLLNNFYPREAKVQWKVDNALQSGNSQESVTEQDSKDSTYSLSSTLTLSKADYEKHKVYACEVTHQGLSSPVTKSFNRGEC
Question: How did the Kd [2] turn out when B3 was run?
Answer: The Kd was 0.379 nM.

Question: And the Kd [3]?
Answer: Its Kd is 0.861 nM.

Question: And the Kd [4]?
Answer: Its Kd is 4.03 nM.

B4: SI-38E17 (antibody, V domains shown)
VH: EVQLVESGGGLVQPGGSLRLSCAASGFTISTNAMSWVRQAPGKGLEWIGVITGRDITYYASWAKGRFTISRDNSKNTLYLQMNSLRAEDTAVYYCARDGGSSAITSNNIWGQGTLVTVSS
VL: AIQLTQSPSSLSASVGDRVTITCRASQGISSALAWYQQKPGKAPKLLIYDASSLESGVPSRFSGSGSGTDFTLTISSLQPEDFATYYCQQFNSYPFTFGPGTKVDIK
Question: Which Kd [5] does the source give for B4 here?
Answer: The Kd was 1.48 nM.

Question: And the Kd [2]?
Answer: Its Kd is 0.524 nM.

Question: What about the Kd [4] of the same binder?
Answer: The Kd was 8.19 nM.

B5: SI-39E18 (antibody)
chain 1: not shown
chain 2: DILMTQSPSSMSVSLGDTVSITCHSSQDINSNIGWLQQRPGKSFKGLIYHGTNLDDEVPSRFSGSGSGADYSLTISSLESEDFADYYCVQYAQFPWTFGGGTKLEIKRTVAAPSVFIFPPSDEQLKSGTASVVCLLNNFYPREAKVQWKVDNALQSGNSQESVTEQDSKDSTYSLSSTLTLSKADYEKHKVYACEVTHQGLSSPVTKSFNRGEC
Question: How did the Kd [6] turn out when B5 was run?
Answer: The Kd was 16.4 nM.

Question: What about the Kd [2] of the same binder?
Answer: The Kd was 0.421 nM.

Question: And the Kd [4]?
Answer: Its Kd is 18.1 nM.

B6: biotinylated human MICA (ligand, UniProt Q29983 24-308, looked up)
chain: EPHSLRYNLTVLSWDGSVQSGFLTEVHLDGQPFLRCDRQKCRAKPQGQWAEDVLGNKTWDRETRDLTGNGKDLRMTLAHIKDQKEGLHSLQEIRVCEIHEDNSTRSSQHFYYDGELFLSQNLETKEWTMPQSSRAQTLAMNVRNFLKEDAMKTKTHYHAMHADCLQELRRYLKSGVVLRRTVPPMVNVTRSEASEGNITVTCRASGFYPWNITLSWRQDGVSLSHDTQQWGDVLPDGNGTYQTWVATRICQGEEQRFTCYMEHSGNHSTHPVPSGKVLVLQSHWQ
modifications: biotinylated (site not stated)
notes: Loaded on SA tips as ligand for SI-49P6 and SI-49P7
Question: How did the Kd [7] turn out when B6 was run?
Answer: Its Kd is 10.7 nM.

B7: SI-38P12 (antibody, human IgG1, kappa)
heavy: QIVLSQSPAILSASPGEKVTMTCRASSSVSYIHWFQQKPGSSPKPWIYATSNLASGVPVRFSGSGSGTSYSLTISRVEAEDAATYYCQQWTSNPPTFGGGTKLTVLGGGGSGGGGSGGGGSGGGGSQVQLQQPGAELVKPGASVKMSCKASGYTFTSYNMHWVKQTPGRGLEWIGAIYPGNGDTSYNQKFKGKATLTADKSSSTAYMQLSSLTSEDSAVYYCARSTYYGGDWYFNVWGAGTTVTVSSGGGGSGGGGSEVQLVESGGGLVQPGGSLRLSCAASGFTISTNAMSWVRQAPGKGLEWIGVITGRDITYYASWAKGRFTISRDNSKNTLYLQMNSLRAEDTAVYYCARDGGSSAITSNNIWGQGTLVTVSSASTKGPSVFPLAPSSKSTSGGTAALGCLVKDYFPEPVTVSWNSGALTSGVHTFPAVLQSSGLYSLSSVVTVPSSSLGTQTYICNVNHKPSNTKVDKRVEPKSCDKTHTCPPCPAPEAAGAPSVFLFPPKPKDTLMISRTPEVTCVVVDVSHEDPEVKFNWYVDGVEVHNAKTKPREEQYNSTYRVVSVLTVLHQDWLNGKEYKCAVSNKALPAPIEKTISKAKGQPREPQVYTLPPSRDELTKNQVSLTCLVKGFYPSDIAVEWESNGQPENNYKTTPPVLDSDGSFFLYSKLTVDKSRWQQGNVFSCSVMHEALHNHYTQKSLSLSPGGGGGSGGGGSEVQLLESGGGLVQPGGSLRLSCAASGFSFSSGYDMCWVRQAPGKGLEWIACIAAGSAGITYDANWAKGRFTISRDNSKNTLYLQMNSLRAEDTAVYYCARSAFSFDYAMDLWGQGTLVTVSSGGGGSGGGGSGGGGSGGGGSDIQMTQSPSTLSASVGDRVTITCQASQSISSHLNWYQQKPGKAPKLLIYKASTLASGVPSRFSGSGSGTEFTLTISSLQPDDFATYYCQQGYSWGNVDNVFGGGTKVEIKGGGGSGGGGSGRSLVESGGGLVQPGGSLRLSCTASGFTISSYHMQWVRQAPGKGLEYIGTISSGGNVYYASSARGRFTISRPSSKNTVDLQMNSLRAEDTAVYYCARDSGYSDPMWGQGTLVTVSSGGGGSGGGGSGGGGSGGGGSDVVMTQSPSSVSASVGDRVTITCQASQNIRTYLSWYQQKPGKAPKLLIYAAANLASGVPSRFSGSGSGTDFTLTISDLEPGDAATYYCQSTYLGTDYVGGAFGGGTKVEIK
light: ENVLTQSPASLSASPGERVTITCSASSSVSYMHWYQQKPGQAPKLWIYDTSKLASGVPSRFSGSGSGNDHTLTISSMEPEDFATYYCFQGSVYPFTFGQGTKVTVLGGGGSGGGGSGGGGSGGGGSQVTLKESGPGLVQPGQTLRLTCAFSGFSLSTSGMGVGWIRQPPGKGLEWLAHIWWDDDKRYNPALKSRLTISKDTSKNQVYLQMNSLDAEDTAVYYCARMELWSYYFDYWGQGTLVTVSSGGGGSGGGGSDVVMTQSPSTLSASVGDRVTINCQASESISSWLAWYQQKPGKAPKLLIYEASKLASGVPSRFSGSGSGTEFTLTISSLQPDDFATYYCQGYFYFISRTYVNSFGGGTKVEIKRTVAAPSVFIFPPSDEQLKSGTASVVCLLNNFYPREAKVQWKVDNALQSGNSQESVTEQDSKDSTYSLSSTLTLSKADYEKHKVYACEVTHQGLSSPVTKSFNRGEC
Question: What does the source list for B7?
Answer: Kd [5]: 1.11 nM; Kd [2]: 0.195 nM; Kd [4]: 4.85 nM

B8: SI-38P13 (antibody, human IgG1, kappa)
heavy: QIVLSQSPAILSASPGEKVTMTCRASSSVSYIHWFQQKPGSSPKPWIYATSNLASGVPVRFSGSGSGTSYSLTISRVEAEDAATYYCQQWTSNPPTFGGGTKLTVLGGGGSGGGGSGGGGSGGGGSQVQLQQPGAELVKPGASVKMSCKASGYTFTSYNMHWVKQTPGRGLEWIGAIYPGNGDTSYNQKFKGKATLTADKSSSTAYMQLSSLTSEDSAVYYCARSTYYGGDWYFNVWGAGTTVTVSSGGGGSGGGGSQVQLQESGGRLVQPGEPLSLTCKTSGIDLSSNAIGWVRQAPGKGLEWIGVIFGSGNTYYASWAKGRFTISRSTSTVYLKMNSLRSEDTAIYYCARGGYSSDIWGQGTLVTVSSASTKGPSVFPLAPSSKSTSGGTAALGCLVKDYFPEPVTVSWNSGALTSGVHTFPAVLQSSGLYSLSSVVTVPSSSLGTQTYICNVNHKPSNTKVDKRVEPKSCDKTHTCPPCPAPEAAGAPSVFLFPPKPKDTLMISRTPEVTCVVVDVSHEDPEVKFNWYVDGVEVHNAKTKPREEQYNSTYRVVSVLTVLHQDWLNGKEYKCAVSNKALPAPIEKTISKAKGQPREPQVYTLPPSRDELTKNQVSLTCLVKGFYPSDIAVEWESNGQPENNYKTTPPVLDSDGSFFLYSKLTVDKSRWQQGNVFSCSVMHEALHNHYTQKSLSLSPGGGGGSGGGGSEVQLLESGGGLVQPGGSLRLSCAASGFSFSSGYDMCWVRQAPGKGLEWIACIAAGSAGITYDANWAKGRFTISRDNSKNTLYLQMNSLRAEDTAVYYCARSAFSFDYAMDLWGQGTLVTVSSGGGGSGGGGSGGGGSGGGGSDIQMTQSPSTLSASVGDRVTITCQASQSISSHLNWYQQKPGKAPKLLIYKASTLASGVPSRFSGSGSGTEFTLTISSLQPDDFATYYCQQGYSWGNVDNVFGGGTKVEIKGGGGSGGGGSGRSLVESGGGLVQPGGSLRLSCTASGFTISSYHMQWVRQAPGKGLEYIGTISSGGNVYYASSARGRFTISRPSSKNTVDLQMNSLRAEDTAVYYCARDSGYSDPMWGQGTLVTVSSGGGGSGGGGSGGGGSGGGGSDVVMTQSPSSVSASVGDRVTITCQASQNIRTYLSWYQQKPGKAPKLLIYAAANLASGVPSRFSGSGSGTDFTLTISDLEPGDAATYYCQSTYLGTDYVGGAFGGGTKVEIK
light: DPVLTQSPSSLSASVGDRVTISCQSSQSVAKNNNLAWFQQKPGQAPKLLIYSASTLAAGVPSRFSGSGSGTDFTLTISSVQPEDFATYYCSARDSGNIQSFGGGTKVEIKRTVAAPSVFIFPPSDEQLKSGTASVVCLLNNFYPREAKVQWKVDNALQSGNSQESVTEQDSKDSTYSLSSTLTLSKADYEKHKVYACEVTHQGLSSPVTKSFNRGECGGGGSGGGGSGGGGSQVTLKESGPGLVQPGQTLRLTCAFSGFSLSTSGMGVGWIRQPPGKGLEWLAHIWWDDDKRYNPALKSRLTISKDTSKNQVYLQMNSLDAEDTAVYYCARMELWSYYFDYWGQGTLVTVSSGGGGSGGGGSGGGGSGGGGSENVLTQSPASLSASPGERVTITCSASSSVSYMHWYQQKPGQAPKLWIYDTSKLASGVPSRFSGSGSGNDHTLTISSMEPEDFATYYCFQGSVYPFTFGQGTKVTVL
Question: Which results are given for B8?
Answer: Kd [5]: 0.181 nM; Kd [2]: 0.731 nM; Kd [4]: 8.54 nM

B9: SI-55H11 (antibody, human IgG1, kappa)
heavy: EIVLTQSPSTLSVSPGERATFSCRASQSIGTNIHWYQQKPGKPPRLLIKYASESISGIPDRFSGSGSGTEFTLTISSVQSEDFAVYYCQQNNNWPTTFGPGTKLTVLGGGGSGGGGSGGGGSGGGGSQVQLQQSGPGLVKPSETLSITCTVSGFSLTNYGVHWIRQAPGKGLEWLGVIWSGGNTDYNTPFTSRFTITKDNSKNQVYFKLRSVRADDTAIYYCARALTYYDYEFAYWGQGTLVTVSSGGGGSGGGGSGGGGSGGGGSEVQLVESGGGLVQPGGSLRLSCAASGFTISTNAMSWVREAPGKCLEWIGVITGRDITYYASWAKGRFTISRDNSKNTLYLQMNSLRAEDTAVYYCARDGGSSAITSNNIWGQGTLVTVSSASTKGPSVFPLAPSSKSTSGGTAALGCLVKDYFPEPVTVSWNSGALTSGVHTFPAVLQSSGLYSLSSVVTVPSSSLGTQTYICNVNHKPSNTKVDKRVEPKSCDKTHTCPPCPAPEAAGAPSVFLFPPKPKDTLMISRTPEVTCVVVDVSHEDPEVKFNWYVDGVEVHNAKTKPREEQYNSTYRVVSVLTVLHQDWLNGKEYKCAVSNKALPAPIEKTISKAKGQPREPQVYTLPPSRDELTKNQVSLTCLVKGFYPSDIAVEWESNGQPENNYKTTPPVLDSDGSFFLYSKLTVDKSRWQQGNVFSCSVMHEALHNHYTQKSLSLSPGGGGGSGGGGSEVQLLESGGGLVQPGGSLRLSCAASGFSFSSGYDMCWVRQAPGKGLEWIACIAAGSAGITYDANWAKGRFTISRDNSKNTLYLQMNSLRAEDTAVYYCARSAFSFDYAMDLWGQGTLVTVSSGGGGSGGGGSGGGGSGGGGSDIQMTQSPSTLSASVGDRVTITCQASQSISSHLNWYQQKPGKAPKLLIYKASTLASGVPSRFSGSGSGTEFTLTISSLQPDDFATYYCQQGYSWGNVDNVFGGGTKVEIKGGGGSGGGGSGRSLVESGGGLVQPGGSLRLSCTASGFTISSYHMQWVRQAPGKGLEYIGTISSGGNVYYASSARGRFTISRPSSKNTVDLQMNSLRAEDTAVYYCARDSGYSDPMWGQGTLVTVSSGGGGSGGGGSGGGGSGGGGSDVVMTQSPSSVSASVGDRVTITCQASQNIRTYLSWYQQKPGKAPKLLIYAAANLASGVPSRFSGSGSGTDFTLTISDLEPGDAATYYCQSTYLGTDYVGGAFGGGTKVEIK
light: ENVLTQSPASLSASPGERVTITCSASSSVSYMHWYQQKPGQAPKLWIYDTSKLASGVPSRFSGSGSGNDHTLTISSMEPEDFATYYCFQGSVYPFTFGQGTKVTVLGGGGSGGGGSGGGGSGGGGSQVTLKESGPGLVQPGQTLSLTCAFSGFSLSTSGMGVGWIRQPPGKGLEWLAHIWWDDDKRYNPALKSRLTISKDTSKNQVYLQMNSLDAEDTAVYYCARMELWSYYFDYWGQGTLVTVSSGGGGSGGGGSDVVMTQSPSTLSASVGDRVTINCQASESISSWLAWYQQKPGKAPKLLIYEASKLASGVPSRFSGSGSGTEFTLTISSLQPDDFATYYCQGYFYFISRTYVNSFGCGTKVEIKRTVAAPSVFIFPPSDEQLKSGTASVVCLLNNFYPREAKVQWKVDNALQSGNSQESVTEQDSKDSTYSLSSTLTLSKADYEKHKVYACEVTHQGLSSPVTKSFNRGECGGGGSGGGGSGGGGSQSALTQPASVSGSPGQSITISCTGTSSDVGGYNFVSWYQQHPGKAPKLMIYDVSDRPSGVSDRFSGSKSGNTASLIISGLQADDEADYYCSSYGSSSTHVIFGGGTKVTVLGGGGSGGGGSGGGGSGGGGSQVQLQESGGGLVKPGGSLSLSCAASGFTFSSYWMSWVRQAPGKGLEWVANINRDGSASYYVDSVKGRFTISRDDAKNSLYLQMNSLRAEDTAVYYCARDRGVGYFDLWGRGTLVTVSS
notes: also called hexa-GNC antibody SI-55H11
Question: With B9 as the binder, how does the Kd [5] read?
Answer: The Kd was 6.8 nM.

Question: And the Kd [2]?
Answer: Its Kd is 0.737 nM.

Question: What about the Kd [4] of the same binder?
Answer: Its Kd is 4.91 nM.

Question: What about the “TDCC EC50 (pM), BxPC3 target cells” value [8] of the same binder?
Answer: Its value is 0.0939 pM.

B10: SI-55H12 (antibody, human IgG1, kappa)
heavy: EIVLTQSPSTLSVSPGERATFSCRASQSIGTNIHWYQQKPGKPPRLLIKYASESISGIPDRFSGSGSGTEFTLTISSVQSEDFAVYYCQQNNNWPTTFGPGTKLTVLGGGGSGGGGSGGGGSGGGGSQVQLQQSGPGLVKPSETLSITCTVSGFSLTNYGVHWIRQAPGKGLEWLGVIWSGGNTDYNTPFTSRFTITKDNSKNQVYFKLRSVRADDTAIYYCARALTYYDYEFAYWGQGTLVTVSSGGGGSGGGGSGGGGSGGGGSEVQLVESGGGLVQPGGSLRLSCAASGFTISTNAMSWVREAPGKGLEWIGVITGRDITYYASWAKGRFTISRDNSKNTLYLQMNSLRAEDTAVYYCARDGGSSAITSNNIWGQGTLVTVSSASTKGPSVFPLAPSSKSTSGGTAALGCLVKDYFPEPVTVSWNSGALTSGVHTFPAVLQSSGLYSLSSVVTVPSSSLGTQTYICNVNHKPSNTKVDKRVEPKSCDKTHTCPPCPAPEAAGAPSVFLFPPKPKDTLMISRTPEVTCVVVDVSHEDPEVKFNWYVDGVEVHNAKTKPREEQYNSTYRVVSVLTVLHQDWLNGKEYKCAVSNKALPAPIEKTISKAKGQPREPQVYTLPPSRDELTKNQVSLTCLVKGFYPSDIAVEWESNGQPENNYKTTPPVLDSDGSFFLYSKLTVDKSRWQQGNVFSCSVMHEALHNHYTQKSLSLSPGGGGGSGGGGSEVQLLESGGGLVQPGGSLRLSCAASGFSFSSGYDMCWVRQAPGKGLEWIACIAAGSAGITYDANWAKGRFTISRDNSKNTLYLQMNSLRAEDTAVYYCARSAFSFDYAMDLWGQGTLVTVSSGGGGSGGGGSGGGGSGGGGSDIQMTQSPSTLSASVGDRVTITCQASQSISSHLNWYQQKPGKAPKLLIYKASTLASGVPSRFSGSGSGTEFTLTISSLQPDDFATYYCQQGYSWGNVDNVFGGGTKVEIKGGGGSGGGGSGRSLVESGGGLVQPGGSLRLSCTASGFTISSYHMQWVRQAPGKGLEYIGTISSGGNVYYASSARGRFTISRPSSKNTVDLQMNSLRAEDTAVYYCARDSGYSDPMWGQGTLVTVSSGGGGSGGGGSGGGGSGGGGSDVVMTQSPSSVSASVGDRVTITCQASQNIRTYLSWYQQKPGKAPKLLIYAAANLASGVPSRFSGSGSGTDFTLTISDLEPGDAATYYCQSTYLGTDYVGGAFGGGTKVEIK
light: ENVLTQSPASLSASPGERVTITCSASSSVSYMHWYQQKPGQAPKLWIYDTSKLASGVPSRFSGSGSGNDHTLTISSMEPEDFATYYCFQGSVYPFTFGQGTKVTVLGGGGSGGGGSGGGGSGGGGSQVTLKESGPGLVQPGQTLSLTCAFSGFSLSTSGMGVGWIRQPPGKGLEWLAHIWWDDDKRYNPALKSRLTISKDTSKNQVYLQMNSLDAEDTAVYYCARMELWSYYFDYWGQGTLVTVSSGGGGSGGGGSDVVMTQSPSTLSASVGDRVTINCQASESISSWLAWYQQKPGKAPKLLIYEASKLASGVPSRFSGSGSGTEFTLTISSLQPDDFATYYCQGYFYFISRTYVNSFGGGTKVEIKRTVAAPSVFIFPPSDEQLKSGTASVVCLLNNFYPREAKVQWKVDNALQSGNSQESVTEQDSKDSTYSLSSTLTLSKADYEKHKVYACEVTHQGLSSPVTKSFNRGECGGGGSGGGGSGGGGSQSALTQPASVSGSPGQSITISCTGTSSDVGGYNFVSWYQQHPGKAPKLMIYDVSDRPSGVSDRFSGSKSGNTASLIISGLQADDEADYYCSSYGSSSTHVIFGGGTKVTVLGGGGSGGGGSGGGGSGGGGSQVQLQESGGGLVKPGGSLSLSCAASGFTFSSYWMSWVRQAPGKGLEWVANINRDGSASYYVDSVKGRFTISRDDAKNSLYLQMNSLRAEDTAVYYCARDRGVGYFDLWGRGTLVTVSS
Question: B10 was tested. Which Kd [2] did it give?
Answer: Its Kd is 0.25 nM.

Question: And the Kd [4]?
Answer: The Kd was 7.87 nM.

Question: Does B10 bind [9]?
Answer: Result: binds
